Data from patent US20150072922A1, “RNASE 7 ANTIMICROBIAL PEPTIDES” (THE RESEARCH INSTITUTE AT NATIONWIDE CHILDREN'S HOSPITAL, priority 2012, published 2015).
Entries after “also recorded” stand apart in the source; their conditions may differ. Marks after values point to notes of the source that are not given here. Primed or numbered codes have the meaning given here. No end group written: not given here. *: point of attachment. His tag″ = six-residue histidine tag (His-tag) at the NH2-terminus, N[C@@H](Cc1c[nH]cn1)C(=O)N[C@@H](Cc1c[nH]cn1)C(=O)N[C@@H](Cc1c[nH]cn1)C(=O)N[C@@H](Cc1c[nH]cn1)C(=O)N[C@@H](Cc1c[nH]cn1)C(=O)N[C@@H](Cc1c[nH]cn1)C(=O)*; His tag = six-residue histidine tag at the N-terminus, N[C@@H](Cc1c[nH]cn1)C(=O)N[C@@H](Cc1c[nH]cn1)C(=O)N[C@@H](Cc1c[nH]cn1)C(=O)N[C@@H](Cc1c[nH]cn1)C(=O)N[C@@H](Cc1c[nH]cn1)C(=O)N[C@@H](Cc1c[nH]cn1)C(=O)*

B1: F:56-128: recombinant C-terminal RNase 7 fragment, amino acids 56 to 128, N-terminal His tag (protein)
chain: QTPKIACKNGDKNCHQSHGPVSLTMCKLTSGKYPNCRYKEKRQNKSYVVACKPPQKKDSQQFHLVPVHLDRVL
modifications: left off: small tags and cut ends
notes: recombinant C-terminal RNase 7 fragment, amino acids 56 to 128, N-terminal His tag
B2: F:30-128: recombinant C-terminal RNase 7 fragment, amino acids 30 to 128, N-terminal His tag (protein)
chain: INKHTKRCKDLNTFLHEPFSSVAATCQTPKIACKNGDKNCHQSHGPVSLTMCKLTSGKYPNCRYKEKRQNKSYVVACKPPQKKDSQQFHLVPVHLDRVL
modifications: left off: small tags and cut ends
notes: recombinant C-terminal RNase 7 fragment, amino acids 30 to 128, N-terminal His tag
B3: F:1-83: recombinant N-terminal RNase 7 fragment, amino acids 1 to 83 (SEQ ID NO: 4), N-terminal His tag (protein, listed as Homo sapiens)
chain: KPKGMTSSQWFKIQHMQPSPQACNSAMKNINKHTKRCKDLNTFLHEPFSSVAATCQTPKIACKNGDKNCHQSHGPVSLTMCKL
modifications: N-terminal His tag
B4: F:1-107: recombinant N-terminal RNase 7 fragment, amino acids 1 to 107 (SEQ ID NO: 6), N-terminal His tag (protein, listed as Homo sapiens)
chain: KPKGMTSSQWFKIQHMQPSPQACNSAMKNINKHTKRCKDLNTFLHEPFSSVAATCQTPKIACKNGDKNCHQSHGPVSLTMCKLTSGKYPNCRYKEKRQNKSYVVACK
modifications: N-terminal His tag
B5: F:46-128: recombinant C-terminal RNase 7 fragment, amino acids 46 to 128, N-terminal His tag (protein)
chain: EPFSSVAATCQTPKIACKNGDKNCHQSHGPVSLTMCKLTSGKYPNCRYKEKRQNKSYVVACKPPQKKDSQQFHLVPVHLDRVL
modifications: left off: small tags and cut ends
notes: recombinant C-terminal RNase 7 fragment, amino acids 46 to 128, N-terminal His tag

How the values were obtained:
Escherichia coli (UTI89) = experiment: Antimicrobial kill (microdilution) assay, MIC/MBC by CFU count; assay type: cell-based; conditions: for antimicrobial activity against E. coli (in words): MIC/MBC based, mostly compared to full-length RNase 7; for E. coli MIC: lowest concentration that inhibits the growth of 90% of the inoculation; for E. coli MIC / E. coli MBC: 3 hours, 0.1×PBS; for E. coli MBC: minimum bactericidal concentration
Procedure: (§1) The antimicrobial activity of RNase 7 and its fragments was estimated using a microdilution assay. Briefly, test bacteria (10^5) were incubated with several concentrations of RNase 7 and each fragment in 50 μl 0.1×PBS buffer for 3 hours in a 37° C. incubator. Each reaction was plated on the appropriate medium and grew overnight at 37° C. The antimicrobial activity was determined by the number of colony-forming units (CFUs) the following day. The minimum inhibition concentration (MIC) is defined as the lowest concentration that inhibits the growth of 90% of the inoculation and the minimum bactericidal concentration (MB C) is defined as the lowest concentration at which less than 99.99% of the initial inoculum is viable.
(§2) Antimicrobial activities of the recombinant peptides were estimated with a microdilution assay. Briefly, the test bacteria (10^4 CFUs) were incubated with various concentrations of RNase 7 and each fragment in 50 ul 0.1×PBS buffer for 3 hours at 37° C. After incubation on Agar plates overnight at 37° C., the number of colony-forming units (CFUs) at each peptide concentration was determined. Using untreated bacterial aliquots as baseline, the minimum inhibition concentration (MIC) was defined as the lowest concentration that inhibits the growth of 90% of the inoculation, and the minimum bactericidal concentration (MBC) was defined as the lowest concentration at which less than 99.99% of the initial inoculum is viable.

[1] = system: Staphylococcus saprophyticus (ATCC 15305); experiment: as above; assay type: cell-based; conditions: for antimicrobial activity against S. saprophyticus (in words): MIC/MBC based, mostly compared to full-length RNase 7; for S. saprophyticus MIC: lowest concentration that inhibits the growth of 90% of the inoculation; for S. saprophyticus MIC / S. saprophyticus MBC: 3 hours, 0.1×PBS; for S. saprophyticus MBC: minimum bactericidal concentration
Procedure: as §1, §2

[2] = system: Proteus mirabilis (ATCC 7002); experiment: as above; assay type: cell-based; conditions: for antimicrobial activity against P. mirabilis (in words): MIC/MBC based, mostly compared to full-length RNase 7; for P. mirabilis MIC: lowest concentration that inhibits the growth of 90% of the inoculation; for P. mirabilis MIC / P. mirabilis MBC: 3 hours, 0.1×PBS; for P. mirabilis MBC: minimum bactericidal concentration
Procedure: Uropathogenic Escherichia coli (UTI89) was grown in Luria broth (LB) medium and plated on LB-agar. Uropathogenic Staphylococcus saprophyticus (ATCC 15305) was grown in LB and plated on Trypticase Soy Agar with 5% sheep blood (Fisher Scientific, Pittsburgh, Pa., USA). Uropathogenic Proteus mirabilis (ATCC 7002) was grown in LB and plated on MacConkey II Agar (Fisher Scientific, Pittsburgh, Pa., USA). These organisms were chosen as the primary organisms that account for a majority of Gram-negative and Gram-positive urinary tract infections (UTI). Anti-RNase 7 antibody was generated in rabbit with recombinant human RNase 7 (Biomatik, Wilmington, Del., USA)
as §2

E. coli = experiment: Urinary condition functional assay (OD600 growth curves); assay type: cell-based, Escherichia coli; conditions: 2 μM peptide, 50, 150, 500 mM NaCl, OD600 for 10 hours, FIG. 4
Procedure: (§3) Because the urinary environment can have significant variation in salt concentration, ionic composition, and pH, an antimicrobial/bacteriostatic assay was performed to evaluate if pH, calcium, or ionic strength affects the activity of full-length RNase7 or its fragments. The highest activity fragment F:1-97 and lowest activity fragment F:72-128 for these experiments were chosen. Bacteria were inoculated in 1% peptone water and growth to log phase with OD600=0.5. Bacteria were diluted to 1:10 and 1 μl added to 100 μl of 1% peptone water with various pH, CaCl2 or NaCl concentrations that correspond to a physiologic range present in the urine in a 96-well flat bottom plate (Thermo Scientific, Nunc, Worcester, Mass.). To each well, 2 μM of RNase7 or its fragments were added.
(§4) Bacterial growth was monitored using an Absorbance microplate reader (BioTek Instruments, Winooski, Vt.) at a final volume of 110 μl. The turbidity of the culture was measured and recorded at t=0 and every 20 min thereafter for 10 hours using the absorbance at 600 nm (OD600). The values of OD600 values were plotted against times to generate growth curves.

S. saprophyticus = experiment: as above; assay type: cell-based, Staphylococcus saprophyticus
Procedure: as §3, §4

Proteus mirabilis = experiment: as above; assay type: cell-based
Procedure: as §3, §4

Molecule	antimicrobial activity against E. coli (in words) (Escherichia coli (UTI89))	E. coli MIC (Escherichia coli (UTI89))	E. coli MBC (Escherichia coli (UTI89))	antimicrobial activity against S. saprophyticus (in words) [1]	S. saprophyticus MIC [1]	S. saprophyticus MBC [1]	antimicrobial activity against P. mirabilis (in words) [2]	P. mirabilis MIC [2]	P. mirabilis MBC [2]	activity on E. coli growth at various NaCl titers (E. coli)	activity on S. saprophyticus growth at various NaCl titers (S. saprophyticus; 2 μM peptide, 50, 150, 500 mM NaCl, OD600 for 10 hours, FIG. 7)	activity on S. saprophyticus growth at various pH levels (S. saprophyticus; 2 μM peptide, pH 5, 7, 9, OD600 for 10 hours, FIG. 6)	activity on Proteus mirabilis growth at various NaCl titers (Proteus mirabilis; 2 μM peptide, 50, 150, 500 mM NaCl, OD600 for 10 hours, FIG. 10)	activity on Proteus mirabilis growth at various pH levels (Proteus mirabilis; 2 μM peptide, pH 5, 7, 9, OD600 for 10 hours, FIG. 9)
F:84-128: recombinant C-terminal RNase 7 fragment, amino acids 84 to 128, N-terminal His tag ({His tag}-TSGKYPNCRYKEKRQNKSYVVACKPPQKKDSQQFHLVPVHLDRVL; cysteine pairing not given here)	poor antimicrobial function against all uropathogens	1.92** uM	>3.5** uM	poor antimicrobial function against all uropathogens	1.75 µM	3.5* uM	poor antimicrobial function against all uropathogens	>3.5** uM	>3.5** uM	–	–	–	–	–
F:72-128: recombinant C-terminal RNase 7 fragment, amino acids 72 to 128, N-terminal His tag ({His tag}-SHGPVSLTMCKLTSGKYPNCRYKEKRQNKSYVVACKPPQKKDSQQFHLVPVHLDRVL; ends and bridges not checked)	least activity	3.5** uM	7* uM	–	3.5** uM	>7** uM	–	>3.5** uM	>3.5** uM	inhibitory effect of 500 mM NaCl against E. coli was diminished with the addition of F:72-128	minimal activity against S. saprophyticus at all NaCl concentrations	minimal activity with enhanced growth at pH 7 and 9; also recorded: grew better with the addition of F:72-128 at pH 7 and 9	minimal activity against P. mirabilis at all NaCl concentrations	minimal activity with enhanced growth at pH 7 and 9
F:1-45: recombinant N-terminal RNase 7 fragment, amino acids 1 to 45 (SEQ ID NO: 2), N-terminal His tag ({His tag″}-KPKGMTSSQWFKIQHMQPSPQACNSAMKNINKHTKRCKDLNTFLH; ends and bridges not checked; listed as Homo sapiens)	–	0.49 µM	0.98 µM	–	0.13 µM	0.5 µM	no activity at high concentrations	>7** uM	>7** uM	–	–	–	–	–
B1	–	0.83 µM	1.65 µM	MICs similar to full-length	0.22 µM	1.75* uM	–	>7** uM	>7** uM	–	–	–	–	–
B2	–	0.52 µM	2.07 µM	–	0.88* uM	.88 µM	–	>3.5** uM	>3.5** uM	–	–	–	–	–
B3	–	0.43 µM	0.87 µM	–	0.34 µM	0.69 µM	–	.44 µM	.88 µM	–	–	–	–	–
B4	–	0.57 µM	0.57 µM	–	0.49 µM	>1.96* uM	–	.44 µM	.44 µM	–	–	–	–	–
B5	–	0.34 µM	.68 µM	MICs similar to full-length	0.22 µM	1.75* uM	–	3.5 µM	>3.5** uM	–	–	–	–	–
